# Measured values: US11298402B2, “Lysosomal degradation of lipids and proteins and method of use thereof” (University of Ottawa, priority 2015, dated 2022)
# What was measured:
# [1] = system: McA-RH7777 cells stably expressing human apoB-100 and human apoC-III (A18-C3); assay type: cell-based; conditions: for effect on EPA-induced lipid degradation (CLD turnover): cells silenced, transfected or pre-treated, then EPA 0.4 mM, 6 h
# Method: (§1) In certain non-limiting examples described herein, McA-RH7777 cells stably expressing human apoB-100 and human apoC-III (designated A18-C3) were used for the studies. […] In addition, these studies, particularly those concerning EPA- or DHA-triggered lysosomal motility and CLD degradation, were also performed using primary rat hepatocytes. Transfection of plasmids encoding proteins of interest, or transfection of siRNA specific for silencing target gene expression, was achieved using the FuGENE HP Extreme reagent (Roche). Representative gene silencing siRNA sequences, which are not meant to be limiting, are described in Table 1, and plasmids encoding proteins of interest are described in Table 2. The effectiveness of siRNA silencing was verified by Western-blotting of cellular content of the target proteins, and by intracellular localization assay using siRNA-Tracker (Mirus Bioscience). Twenty-four h after plasmid transfection, or 48 h after siRNA transfection, the cells were cultured in lipid-rich media containing fetal bovine serum (20%) and OA (0.4 mM). The lipid-laden cells were switched to fresh media supplemented with OA or EPA (0.4 mM). In live imaging experiments, LipidTOX Red (Life Technologies) and LysoTracker (Life Technologies) were added to media prior to EPA treatment, to visualize lipid droplets and lysosomes, respectively. For visualizing peroxisomes, Peroxisome-GFP (Invitrogen) was introduced to the cells 24 h prior to experiments. Quantification of cell lipid contents was achieved either by direct mass measurement (HPTLC) and counting the number of lipid droplets using Image J Lipid Droplet Counter Plug-In, or indirectly by Western blot analysis of cellular content of ADRP. Secretion of apoB and TG-rich lipoprotein was determined by Western blot analysis and metabolic labeling. Mitochondrial β-oxidation was measured using MitoSOX Red (Life Technologies) in situ. Autophagic flux was determined by using Cyto-ID assay (Enzo Life Science) and by monitoring GFP-LC3 clustering in situ. Interaction of Arl8b and subunits of the HOPS complex was determined in situ by the proximity ligation assay (Olink Biosience). Cytoplasmic pH was measured using the cytosolic pHrodo indicator reagent (Invitrogen). Live imaging of fluorescent-tagged proteins was performed 1 h post-EPA treatment. Cells were also collected at the time of EPA treatment for transmission EM and tomography, as well as immuno-EM. For movies, cells were imaged at 60 sec intervals every 5 min, for a total of 30 min.
# The A18-C3 cells were cultured in DMEM (Invitrogen) supplemented with fetal bovine serum (20%), penicillin (50 U/mL), streptomycin (50 μg/mL, Invitrogen) and Geneticin/G418 (500 μg/mL, Gibco) at 37° C. in 5% CO2. Transfection was conducted when cells were 60-70% confluence. Appropriate plasmids were mixed with FuGENE HP extreme reagent (Roche Diagnostic), according to manufacturer's protocol, and incubated for 30 min. Twenty-four h after transfection, cells were switched to lipid-rich media containing OA (0.4 mM) for additional 16 h prior to imaging and biochemical analysis. In silencing experiments, appropriate siRNAs were transfected into cells using the X-treme GENE siRNA regent (Roche Diagnostic). Localization of siRNA in transfected cells in situ was carried out using the Cy5 Label IT-siRNA Tracker (Minis Bioscience #7213) according to manufacturer's protocol. Forty-eight h after transfection, cells were switched to lipid-rich media containing OA (0.4 mM) for additional 16 h prior to imaging and biochemical analysis.
# Quantification of lipid droplets was carried out using confocal and differential interface contrast (DIC) microscopy. Lipid droplets were stained with LipidTOX Red (Invitrogen) before adding OA or EPA. All images were visualized using a 63× oil immersion objective lens. Z-series stacks were acquired with 0.2 μm steps. […]
# [2] = system: McA-RH7777 cells (A18-C3); assay: Live imaging of lysosomal motility and lysosome-CLD interaction (kiss-and-run); assay type: cell-based, rat; conditions: cells silenced, transfected or pre-treated (15 min) before EPA
# Method: as §1
# Cells were grown on 35-mm glass bottom dishes (Ibidi GmbH München, Germany) for 16 h in DMEM supplemented with FBS (20%) and OA (0.4 mM). Cells were imaged using a Zeiss 510 META laser scanning confocal microscope with a heated CO2-controlled stage (5% CO2 at 37° C.). Images were captured at a frame-rate of 30 frame/sec using a 63×. N.A.1.4 objective. Recommended laser lines and filter combinations were used for each dye. For visualization of lipid droplets, lysosomes, mitochondria, and mitochondrial β-oxidation, the respective reagents LipidTOX Red (Invitrogen), LysoTracker (Life Technology), MitoTracker (Life Technology), MitoSox Red (Invitrogen), and Peroxisome-GFP BacMam2.0 (Invitrogen) were introduced into the cells, according to manufacturers' recommendations, prior to EPA treatment.
# Cells were cultured with lipid-rich media containing OA (0.4 mM) for 16 h. The lipid-laden cells were switched to fresh media containing EPA (0.4 mM) for 1 h, and the lysosomal movement towards lipid droplets was recorded by time-lapse microscopy. Fluorescent intensity of lysosomal signals at the periphery of selected individual lipid droplet was measured using Image J Live Intensity Profiler Plug-in^31-33 over a period of 40 sec. Quantification for each condition was carried out for 60 individual lipid droplets from three independent experiments. Constant threshold was applied to all of the images in each experiment.
Molecule,effect on EPA-induced lipid degradation (CLD turnover) [1],effect on EPA-triggered lysosomal motility / lysosomal interaction with CLD [2],"effect on lipid degradation when co-expressed with Arl8b^WT, Arl8b^Q75L or Arl8b^T34N ([1]; co-transfected cells, 6 h post-OA or -EPA)"
"COC(=O)Nc1nc2ccc(C(=O)c3cccs3)cc2[nH]1 [nocodazole, reference compound]",blocked EPA-induced lipid degradation,blocks EPA-induced lysosomal movement,
"Cl.N [NH4Cl, reference compound]",inhibited,,
"CCC/C=C/C/C=C/C=C/C=N/NN=O [Triacsin C, reference compound]",inhibited EPA-induced lipid degradation,blocked,
"RILP: Rab7 effector, retrograde motor adaptor, overexpressed GFP-tagged from plasmid (protein, UniProt Q96NA2 1-401, looked up, GFP tag) Rab-interacting lysosomal …: MEPRRAAPGVPGWGSREAAGSASAAELVYHLAGALGTELQDLARRFGPEAAAGLVPLVVRALELLEQAAVGPAPDSLQVSAQPAEQELRRLREENERLRRELRAGPQEERALLRQLKEVTDRQRDELRAHNRDLRQRGQETEALQEQLQRLLLVNAELRHKLAAMQTQLRAAQDRERERQQPGEAATPQAKERARGQAGRPGHQHGQEPEWATAGAGAPGNPEDPAEAAQQLGRPSEAGQCRFSREEFEQILQERNELKAKVFLLKEELAYFQRELLTDHRVPGLLLEAMKVAVRKQRKKIKAKMLGTPEEAESSEDEAGPWILLSDDKGDHPPPPESKIQSFFGLWYRGKAESSEDETSSPAPSKLGGEEEAQPQSPAPDPPCSALHEHLCLGASAAPEA",adversely blocked EPA-induced lipid degradation,blocks EPA-triggered lysosomal interaction with LDs,
"FYCO1: Rab7 effector, anterograde motor adaptor, overexpressed GFP-tagged from plasmid (protein, UniProt Q9BQS8 2-1478, looked up, GFP tag) FYVE and coiled-coil …: ASTNAESQLQRIIRDLQDAVTELSKEFQEAGEPITDDSTSLHKFSYKLEYLLQFDQKEKATLLGNKKDYWDYFCACLAKVKGANDGIRFVKSISELRTSLGKGRAFIRYSLVHQRLADTLQQCFMNTKVTSDWYYARSPFLQPKLSSDIVGQLYELTEVQFDLASRGFDLDAAWPTFARRTLTTGSSAYLWKPPSRSSSMSSLVSSYLQTQEMVSNFDLNSPLNNEALEGFDEMRLELDQLEVREKQLRERMQQLDRENQELRAAVSQQGEQLQTERERGRTAAEDNVRLTCLVAELQKQWEVTQATQNTVKELQTCLQGLELGAAEKEEDYHTALRRLESMLQPLAQELEATRDSLDKKNQHLASFPGWLAMAQQKADTASDTKGRQEPIPSDAAQEMQELGEKLQALERERTKVEEVNRQQSAQLEQLVKELQLKEDARASLERLVKEMAPLQEELSGKGQEADQLWRRLQELLAHTSSWEEELAELRREKKQQQEEKELLEQEVRSLTRQLQFLETQLAQVSQHVSDLEEQKKQLIQDKDHLSQQVGMLERLAGPPGPELPVAGEKNEALVPVNSSLQEAWGKPEEEQRGLQEAQLDDTKVQEGSQEEELRQANRELEKELQNVVGRNQLLEGKLQALQADYQALQQRESAIQGSLASLEAEQASIRHLGDQMEASLLAVRKAKEAMKAQMAEKEAILQSKEGECQQLREEVEQCQQLAEARHRELRALESQCQQQTQLIEVLTAEKGQQGVGPPTDNEARELAAQLALSQAQLEVHQGEVQRLQAQVVDLQAKMRAALDDQDKVQSQLSMAEAVLREHKTLVQQLKEQNEALNRAHVQELLQCSEREGALQEERADEAQQREEELRALQEELSQAKCSSEEAQLEHAELQEQLHRANTDTAELGIQVCALTVEKERVEEALACAVQELQDAKEAASREREGLERQVAGLQQEKESLQEKLKAAKAAAGSLPGLQAQLAQAEQRAQSLQEAAHQELNTLKFQLSAEIMDYQSRLKNAGEECKSLRGQLEEQGRQLQAAEEAVEKLKATQADMGEKLSCTSNHLAECQAAMLRKDKEGAALREDLERTQKELEKATTKIQEYYNKLCQEVTNRERNDQKMLADLDDLNRTKKYLEERLIELLRDKDALWQKSDALEFQQKLSAEERWLGDTEANHCLDCKREFSWMVRRHHCRICGRIFCYYCCNNYVLSKHGGKKERCCRACFQKLSEGPGSPDSSGSGTSQGEPSPALSPASPGPQATGGQGANTDYRPPDDAVFDIITDEELCQIQESGSSLPETPTETDSLDPNAAEQDTTSTSLTPEDTEDMPVGQDSEICLLKSGELMIKVPLTVDEIASFGEGSRELFVRSSTYSLIPITVAEAGLTISWVFSSDPKSISFSVVFQEAEDTPLDQCKVLIPTTRCNSHKENIQGQLKVRTPGIYMLIFDNTFSRFVSKKVFYHLTVDRPVIYDGSDFL",adversely blocked EPA-induced lipid degradation,blocks EPA-triggered lysosomal interaction with LDs,
Vps41: HOPS subunit overexpressed from plasmid (GFP-tagged) (protein) MAEAEEQETESLEESTDESEEESEEEPKLKYERLSNGVTEILQKDAASCMTVHDKFLALGTHYGKVYLLDVQGNITQKFDVSPVKINQISLDESGEHMGVCSEDGKLQVFGLYSGEEFHETFDCPIKIVAVHPQFVRSSCKQFVTGGKKLLLFERTWMNRWKSSVLHEGEGNIRSVKWRGHLIAWANNMGVKIFDITSKQRITNVPRDDISLRPDMYPCSLCWKDAVTLIIGWGTSIKICSVKERHASEMRDLPSRYVEIVSQFETEFYISGLAPLCDQLVVLSYVKEVSEKTEREYCARPRLDIIQPLPETCEEISSDALTVRGFQENECRDYHLEYSEGESLFYVVSPRDVVVAKERDQDDHIDWLLEKKKYEEALMAAEISHRNIKRHKILEIGLAYVNHLVERGEYDMAARKCQKILGKNASLWEYEVYKFKEIGQLKAISPYLPRGDPVLKPLIYEMILHEFLESDYEGFATLIREWPGDLYNNSVIVQAVRDHLKKDSQNKTLLKTLAELYTYDKNYGNALEIYLTLRHKDVFQLIHKHNLFSSIKDKIVLLMDFDSEKAVDMLLDNEDKISIKKVVEELEDRPELQHVYLHKLFKRDHHKGQRYHEKQISLYAEYDRPNLLPFLRDSTHCPLEKALEICQQRNFVEETVYLLSRMGNSRSALKMIMEELHDVDKAIEFAKEQDDGELWEDLILYSIDKPPFITGLLNNIGTHVDPILLIHRIKEGMEIPNLRDSLVKILQDYNLQILLREGCKKILVADSLSLLKKMHRTQMKGVLVDEENICESCLSPILPTDAAKPFSVVVFHCRHMFHKECLPMPSLNAPAQYCNICSAKNRGPGSAILEMKK,block lipid degradation,enhanced lysosomal-CLD interaction,invariably blocks lipid degradation
